The values that follow are results of earlier work, collected in paper PMC11070850.

By Kd is commonly meant the equilibrium constant for the complex coming apart.

In this data set the target is mucin 1 (UniProt P15941). The note with it: 10 mM MOPS, 100 mM NaNO3, pH 7.6, room temperature, 60 min (aptamer + mucin 1 + DNA nanospheres); then CuSO4 50 min and calcein 2 min.
Chain of mucin 1 (P15941 24-1158): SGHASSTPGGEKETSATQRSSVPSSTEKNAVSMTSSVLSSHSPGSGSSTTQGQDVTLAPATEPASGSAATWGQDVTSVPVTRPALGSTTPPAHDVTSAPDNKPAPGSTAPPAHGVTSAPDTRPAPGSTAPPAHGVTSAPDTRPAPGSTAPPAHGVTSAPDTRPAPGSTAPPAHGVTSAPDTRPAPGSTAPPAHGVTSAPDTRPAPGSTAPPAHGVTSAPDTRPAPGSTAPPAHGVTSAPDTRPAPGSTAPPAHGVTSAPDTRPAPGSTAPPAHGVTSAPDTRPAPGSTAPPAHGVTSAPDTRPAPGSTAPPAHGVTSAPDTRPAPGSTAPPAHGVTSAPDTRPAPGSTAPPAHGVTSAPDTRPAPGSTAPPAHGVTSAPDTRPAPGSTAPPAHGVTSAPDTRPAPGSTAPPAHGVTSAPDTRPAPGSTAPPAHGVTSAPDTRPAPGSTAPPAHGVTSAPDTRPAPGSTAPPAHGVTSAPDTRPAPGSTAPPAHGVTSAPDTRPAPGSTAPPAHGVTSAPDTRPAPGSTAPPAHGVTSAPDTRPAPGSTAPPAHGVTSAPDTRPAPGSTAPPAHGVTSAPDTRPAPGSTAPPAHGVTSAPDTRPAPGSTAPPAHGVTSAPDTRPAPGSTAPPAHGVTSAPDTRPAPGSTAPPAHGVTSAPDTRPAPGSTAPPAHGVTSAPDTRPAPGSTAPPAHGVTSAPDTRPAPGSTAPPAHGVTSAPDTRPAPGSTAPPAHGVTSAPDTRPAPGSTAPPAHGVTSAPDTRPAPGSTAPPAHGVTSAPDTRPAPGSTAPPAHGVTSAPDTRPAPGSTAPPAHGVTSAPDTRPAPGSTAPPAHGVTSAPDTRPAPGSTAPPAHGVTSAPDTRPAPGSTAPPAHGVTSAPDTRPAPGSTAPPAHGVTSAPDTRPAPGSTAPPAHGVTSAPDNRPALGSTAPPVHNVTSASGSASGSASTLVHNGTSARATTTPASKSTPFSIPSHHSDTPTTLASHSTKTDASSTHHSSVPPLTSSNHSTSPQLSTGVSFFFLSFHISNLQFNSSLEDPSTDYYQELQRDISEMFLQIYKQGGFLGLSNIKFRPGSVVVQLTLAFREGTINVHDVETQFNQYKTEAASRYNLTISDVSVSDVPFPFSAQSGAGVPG

Regarding “GCAGTTGATCCTTTGGATACCCTGG [mucin 1 aptamer]”, the equilibrium dissociation constant (Kd) is 0.135 nM.
